B1: ASCC2 with a C-terminal FLAG tag (natural protein, human, UniProt Q9H1I8 1-757, looked up)
chain: MPALPLDQLQITHKDPKTGKLRTSPALHPEQKADRYFVLYKPPPKDNIPALVEEYLERATFVANDLDWLLALPHDKFWCQVIFDETLQKCLDSYLRYVPRKFDEGVASAPEVVDMQKRLHRSVFLTFLRMSTHKESKDHFISPSAFGEILYNNFLFDIPKILDLCVLFGKGNSPLLQKMIGNIFTQQPSYYSDLDETLPTILQVFSNILQHCGLQGDGANTTPQKLEERGRLTPSDMPLLELKDIVLYLCDTCTTLWAFLDIFPLACQTFQKHDFCYRLASFYEAAIPEMESAIKKRRLEDSKLLGDLWQRLSHSRKKLMEIFHIILNQICLLPILESSCDNIQGFIEEFLQIFSSLLQEKRFLRDYDALFPVAEDISLLQQASSVLDETRTAYILQAVESAWEGVDRRKATDAKDPSVIEEPNGEPNGVTVTAEAVSQASSHPENSEEEECMGAAAAVGPAMCGVELDSLISQVKDLLPDLGEGFILACLEYYHYDPEQVINNILEERLAPTLSQLDRNLDREMKPDPTPLLTSRHNVFQNDEFDVFSRDSVDLSRVHKGKSTRKEENTRSLLNDKRAVAAQRQRYEQYSVVVEEVPLQPGESLPYHSVYYEDEYDDTYDGNQVGANDADSDDELISRRPFTIPQVLRTKVPREGQEEDDDDEEDDADEEAPKPDHFVQDPAVLREKAEARRMAFLAKKGYRHDSSTAVAGSPRGHGQSRETTQERRKKEANKATRANHNRRTMADRKRSKGMIPS
notes: ASCC2, human, subunit of the ASC-1 complex (ASCC); Cloned with primers from the start codon to the last codons before the FLAG tag and stop; Plasmid pUCDM-ASCC2-FLAG-TRIP4; also called ASCC2-FLAG; source: Sf21 insect cells, baculovirus, co-expressed with the other ASCC subunits; purified (NiNTA, anti-FLAG M2, heparin Sepharose); not shown: FLAG, C-terminal, kept

Experiments:
[1] = molecular target: T1, ASCC1 with a C-terminal 8-histidine tag (human, UniProt Q8N9N2-2 1-357); assay: tandem affinity co-purification (NiNTA, anti-FLAG M2, heparin Sepharose); four subunits co-expressed in Sf21 insect cells; lysate bound to NiNTA through ASCC1-8His (washed at 300 mM NaCl), the eluate bound to anti-FLAG M2 resin through ASCC2-FLAG and eluted with FLAG peptide, then heparin Sepharose; elution fractions shown on a gel; 4°C, 20 mM Tris-HCl 8.0, 10% glycerol; conditions: partners not purified
T1 construct: ASCC1, human, subunit of the ASC-1 complex (ASCC); Plasmid pFL-ASCC1-8His-ASCC3, fused by Cre with pUCDM-ASCC2-FLAG-TRIP4; The isoform is inferred from the printed reverse primer; also called ASCC1-8His; source: Sf21 insect cells, baculovirus, co-expressed with the other ASCC subunits; purified (NiNTA, anti-FLAG M2, heparin Sepharose); not shown: His8, C-terminal, kept
T1 sequence (looked up): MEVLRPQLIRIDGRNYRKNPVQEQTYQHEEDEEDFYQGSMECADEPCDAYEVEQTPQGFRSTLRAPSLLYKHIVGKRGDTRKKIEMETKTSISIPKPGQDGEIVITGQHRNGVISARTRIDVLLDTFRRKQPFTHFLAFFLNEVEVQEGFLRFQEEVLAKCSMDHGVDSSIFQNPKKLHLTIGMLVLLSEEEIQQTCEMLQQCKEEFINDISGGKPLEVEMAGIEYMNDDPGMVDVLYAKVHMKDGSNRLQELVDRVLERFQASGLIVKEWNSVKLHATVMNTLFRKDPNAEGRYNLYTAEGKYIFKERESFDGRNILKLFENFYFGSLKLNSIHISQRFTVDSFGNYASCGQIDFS

[2] = molecular target: B1; assay: as above; conditions: partners not purified

Row | Binder | stoichiometry N [1] | stoichiometry N [2]
1 | B1 | ~1 | 
2 | ASC-1 (also known as TRIP4), untagged (natural protein, human, UniProt Q15650 1-581, looked up, ASC-1 (TRIP4), human, subunit of the ASC-1 complex (ASCC); Untagged, cloned with primers from the start codon to the stop codon; Plasmid pUCDM-ASCC2-FLAG-TRIP4; source: Sf21 insect cells, baculovirus, co-expressed with the other ASCC subunits; purified (NiNTA, anti-FLAG M2, heparin Sepharose)) MAVAGAVSGEPLVHWCTQQLRKTFGLDVSEEIIQYVLSIESAEEIREYVTDLLQGNEGKKGQFIEELITKWQKNDQELISDPLQQCFKKDEILDGQKSGDHLKRGRKKGRNRQEVPAFTEPDTTAEVKTPFDLAKAQENSNSVKKKTKFVNLYTREGQDRLAVLLPGRHPCDCLGQKHKLINNCLICGRIVCEQEGSGPCLFCGTLVCTHEEQDILQRDSNKSQKLLKKLMSGVENSGKVDISTKDLLPHQELRIKSGLEKAIKHKDKLLEFDRTSIRRTQVIDDESDYFASDSNQWLSKLERETLQKREEELRELRHASRLSKKVTIDFAGRKILEEENSLAEYHSRLDETIQAIANGTLNQPLTKLDRSSEEPLGVLVNPNMYQSPPQWVDHTGAASQKKAFRSSGFGLEFNSFQHQLRIQDQEFQEGFDGGWCLSVHQPWASLLVRGIKRVEGRSWYTPHRGRLWIAATAKKPSPQEVSELQATYRLLRGKDVEFPNDYPSGCLLGCVDLIDCLSQKQFKEQFPDISQESDSPFVFICKNPQEMVVKFPIKGNPKIWKLDSKIHQGAKKGLMKQNKAV | ~1 | ~1

Reference: paper PMC7447978, “The ASC-1 Complex Disassembles Collided Ribosomes” (Molecular Cell, 2020)
